Measured values from patent US9566335 (GOVERNING COUNCIL OF THE UNIVERSITY OF TORONTO, dated 2017).
No end group written: not given here. *: point of attachment. Biotin = O=C1N[C@H]2[C@H](CS[C@H]2CCCCC(=O)*)N1

B1: Phage displayed wild-type E. coli ClpS (truncated wildtype ClpS polypeptide, FLAG-tagged, fused to phage coat protein p3) (other)
chain: KPPSMYKVILVNDDYTPMEFVIDVLQKFFSYDVERATQLMLAVHYQGKAICGVFTAEVAETKVAMVNKYARENEHPLLCTLEKA
notes: also called ClpS Wt; ClpS WT; not shown: N-terminal FLAG tag
B2: ClpS Variant 1 (Trp-binding ClpS variant), phage displayed (designed binder)
chain: KPPSMYKVILVNDDYTPAEFCIDVLQKFFSYDVERATQLCLAAHYQGKAICGVFTAEVAETKVAMVNKYARENEHAALCTLEKA
notes: tested as phage; also called ClpS variant W1; W1; not shown: N-terminal FLAG tag of the phage display construct; C-terminal phage coat protein p3 of the phage display construct
B3: biotinylated peptide X-SDGMFTAGSLIGK(biotin), X = L (peptide)
peptide: LSDGMFTAGSLIGK(Biotin)
notes: also called Leu peptide

Tests used:
[1] = molecular target: B2; test: competitive phage ELISA: W1 phage equilibrated with free peptide, then on immobilised Wpep(biotin)
[2] = molecular target: B2; test: competitive phage ELISA, 10 uM free peptide against immobilised Wpep
[3] = molecular target: B2; test: competitive phage ELISA against immobilised Wpep
streptavidin = molecular target: T1, streptavidin (UniProt P22629 37-163); test: phage ELISA, FIG. 6B
T1 construct: also called SA

bovine serum albumin = molecular target: T2, bovine serum albumin (bovine, UniProt P02769 25-607); test: phage ELISA, FIG. 6B
T2 construct: also called BSA

[4] = molecular target: B3; test: phage ELISA
[5] = molecular target: B1; test: phage ELISA

T1 sequence (P22629 37-163 limits assumed): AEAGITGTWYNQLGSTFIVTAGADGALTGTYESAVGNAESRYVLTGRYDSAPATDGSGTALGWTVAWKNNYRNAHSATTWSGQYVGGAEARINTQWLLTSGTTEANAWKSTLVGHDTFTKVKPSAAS
T2 sequence (P02769 25-607 limits assumed): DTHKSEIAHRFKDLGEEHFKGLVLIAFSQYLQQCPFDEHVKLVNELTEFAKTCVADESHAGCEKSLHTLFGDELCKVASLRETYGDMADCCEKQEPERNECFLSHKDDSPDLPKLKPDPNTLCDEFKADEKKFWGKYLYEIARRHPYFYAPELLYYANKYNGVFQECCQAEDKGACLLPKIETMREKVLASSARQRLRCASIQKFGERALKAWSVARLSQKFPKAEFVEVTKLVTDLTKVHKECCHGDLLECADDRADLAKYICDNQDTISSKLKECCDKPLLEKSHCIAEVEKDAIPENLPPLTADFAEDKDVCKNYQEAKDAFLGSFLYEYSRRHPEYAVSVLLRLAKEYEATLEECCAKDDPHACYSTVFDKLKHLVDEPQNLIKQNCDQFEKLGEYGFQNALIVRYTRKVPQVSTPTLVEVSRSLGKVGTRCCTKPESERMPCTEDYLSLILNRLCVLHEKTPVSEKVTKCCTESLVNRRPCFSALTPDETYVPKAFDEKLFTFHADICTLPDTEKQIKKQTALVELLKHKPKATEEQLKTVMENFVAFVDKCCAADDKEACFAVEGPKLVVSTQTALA

| Binder | binding result [3] | other results |
| --- | --- | --- |
| WSDGMFTAGSLI (also called Wpep) [non-biotinylated peptide XSDGMFTAGSLI, X = W] |  | IC50 [1]: ~1000 nM; binding remaining at 10 uM competitor (relative to no competitor) [1]: 11% |
| GSDGMFTAGSLI [non-biotinylated peptide XSDGMFTAGSLI, X = G] |  | binding result [2]: binds |
| ASDGMFTAGSLI [non-biotinylated peptide XSDGMFTAGSLI, X = A] | no binding (tested: 10 uM) |  |
| MSDGMFTAGSLI [non-biotinylated peptide XSDGMFTAGSLI, X = M] | no binding (tested: 10 uM) |  |
| PSDGMFTAGSLI [non-biotinylated peptide XSDGMFTAGSLI, X = P] | no binding (tested: 10 uM) |  |
| ESDGMFTAGSLI [non-biotinylated peptide XSDGMFTAGSLI, X = E] | no binding (tested: 10 uM) |  |
| QSDGMFTAGSLI [non-biotinylated peptide XSDGMFTAGSLI, X = Q] | no binding (tested: 10 uM) |  |
| YSDGMFTAGSLI [non-biotinylated peptide XSDGMFTAGSLI, X = Y] |  | binding result [2]: binds |
| ISDGMFTAGSLI [non-biotinylated peptide XSDGMFTAGSLI, X = I] |  | binding result [2]: binds |
| NSDGMFTAGSLI [non-biotinylated peptide XSDGMFTAGSLI, X = N] | no binding (tested: 10 uM) |  |
| KSDGMFTAGSLI [non-biotinylated peptide XSDGMFTAGSLI, X = K] | no binding (tested: 10 uM) |  |
| RSDGMFTAGSLI [non-biotinylated peptide XSDGMFTAGSLI, X = R] | no binding (tested: 10 uM) |  |
| HSDGMFTAGSLI [non-biotinylated peptide XSDGMFTAGSLI, X = H] | no binding (tested: 10 uM) |  |
| VSDGMFTAGSLI [non-biotinylated peptide XSDGMFTAGSLI, X = V] | no binding (tested: 10 uM) |  |
| TSDGMFTAGSLI [non-biotinylated peptide XSDGMFTAGSLI, X = T] | no binding (tested: 10 uM) |  |
| CSDGMFTAGSLI [non-biotinylated peptide XSDGMFTAGSLI, X = C] | no binding (tested: 10 uM) |  |
| DSDGMFTAGSLI [non-biotinylated peptide XSDGMFTAGSLI, X = D] | no binding (tested: 10 uM) |  |
| LSDGMFTAGSLI [non-biotinylated peptide XSDGMFTAGSLI, X = L] |  | binding result [2]: binds |
| SSDGMFTAGSLI [non-biotinylated peptide XSDGMFTAGSLI, X = S] | no binding (tested: 10 uM) |  |
| FSDGMFTAGSLI [non-biotinylated peptide XSDGMFTAGSLI, X = F] |  | binding result [2]: binds |
| B1 |  | binding result (streptavidin): no binding; binding result (bovine serum albumin): no binding |
| B2 |  | binding result [4]: no binding |
| B3 |  | binding result [5]: binds |
| WSDGMFTAGSLIGK(Biotin) (also called Wpep; Trp peptide) [biotinylated peptide X-SDGMFTAGSLIGK(biotin), X = W] |  | binding result [5]: binds |
